Consider 8 molecules from patent US20190153103A1 (AbbVie / Abbott, published 2019).

By Kd is commonly meant the free concentration of one partner at which half of the binding sites on the other are occupied at equilibrium, for simple one-to-one binding. What is called % inhibition is the percentage by which the read-out fell short of the control.

Experiment [1] deals with T1, hBMPR1B-His (human BMPR1B extracellular domain, residues K14 to R126, with C-terminal 9x-Histidine tag) (human, UniProt O00238 14-126).
T1 construct: Residues K14-R126 are counted on the hBMPR1B ORF (NM_001203); The IgK signal peptide of the vector is left out; also called hBMPR1B-CHis; human BMPR1B-his
T1 sequence: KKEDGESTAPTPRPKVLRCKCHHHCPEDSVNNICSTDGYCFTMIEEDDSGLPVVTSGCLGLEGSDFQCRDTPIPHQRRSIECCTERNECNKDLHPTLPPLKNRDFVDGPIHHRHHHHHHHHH
The experiment can be described thus: ELISA. For orientation: ELISA stands for enzyme-linked immunosorbent assay.

Experiment [2] addresses T2, BMPR1A-Fc (recombinant protein used in the screen 1 ELISA) (human, UniProt P36894 24-152, limits assumed).
T2 construct: also called human BMPR1A; not shown: Fc
The experiment can be described thus: ELISA.

Experiment [3] addresses T3, irrelevant Fc-tagged protein.
T3 construct: ELISA control; also called irrelevant Fc construct
As to the kind of experiment: ELISA.

Experiment [4] addresses T4, hBMPR1B-Fc (human BMPR1B extracellular domain, residues K14 to R126, fused to human IgG2 Fc) (human, UniProt O00238 14-126).
T4 construct: also called BMPR1B fused to human Fc fragment; not shown: human IgG2 Fc protein
T4 sequence: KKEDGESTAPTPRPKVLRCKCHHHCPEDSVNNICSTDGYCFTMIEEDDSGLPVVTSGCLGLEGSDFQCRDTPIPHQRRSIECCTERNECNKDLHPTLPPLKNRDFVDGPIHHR
As to the kind of experiment: ELISA.

Experiment [5] has as its target T1, hBMPR1B-His (human BMPR1B extracellular …). As to the kind of experiment: Biacore. A general note: SPR reads the build-up and loss of mass on a sensor chip optically.
Experiment [6] deals with T5, human BMPR1B overexpressed on the surface of HEK293T cells (N-terminal Asp-Lys epitope tag, … (human, UniProt O00238 14-502)).
T5 construct: also called HEK293T cells overexpressing hBMPR1B; BMPR1B-expressing HEK293T cells
The experiment can be described thus: flow cytometry. A general note: A flow cytometer gives signals particle by particle.

In experiment [7] the target is T6, rat BMPR1B overexpressed on the surface of HEK293T cells (N-terminal Asp-Lys epitope tag, … (rat, UniProt A0A8I6A0G0 62-550)).
T6 construct: whole, on cells
The experiment can be described thus: flow cytometry.

Experiment [8] addresses T7, rat-his.
T7 construct: soluble analyte of the Biacore runs; also called rSCRx91-his; rBMPR1B-CHis
T7 chain: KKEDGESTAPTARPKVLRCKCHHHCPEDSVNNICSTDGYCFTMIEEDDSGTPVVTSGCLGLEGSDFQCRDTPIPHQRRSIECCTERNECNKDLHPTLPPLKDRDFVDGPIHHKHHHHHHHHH
The experiment can be described thus: Biacore, 200 nM.

Experiment [9] addresses T5, human BMPR1B overexpressed on the …. As to the kind of experiment: cell-based or functional assay.
In experiment [10] the target is T6, rat BMPR1B overexpressed on the surface …. As to the kind of experiment: cell-based or functional assay.
Experiment [11] addresses T8, human BMPR1B coated on MSD plates (construct not stated) (human, UniProt O00238 14-126, limits assumed).
T8 construct: also called BMPR1B receptor
T8 sequence: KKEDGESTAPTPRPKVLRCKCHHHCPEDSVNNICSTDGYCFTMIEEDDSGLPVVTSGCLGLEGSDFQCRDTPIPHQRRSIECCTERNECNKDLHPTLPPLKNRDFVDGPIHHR
As to the kind of experiment: MSD ELISA, BMP2 blocked. On the set-up: concentration or dose not given beside the values.

Experiment [12] concerns the target T8, human BMPR1B coated on MSD plates …. As to the kind of experiment: MSD ELISA, BMP4 blocked. On the set-up: concentration or dose not given beside the values.
For experiment [13], the target named is T9, Cyno-his (cynomolgus).
T9 construct: extracellular domain; soluble analyte of the Biacore runs; also called cSCRx91-his; cBMPR1B-CHis
As to the kind of experiment: Biacore.

The target of experiment [14] is T7, rat-his. The experiment can be described thus: Biacore.

T2 sequence (P36894 24-152 limits assumed): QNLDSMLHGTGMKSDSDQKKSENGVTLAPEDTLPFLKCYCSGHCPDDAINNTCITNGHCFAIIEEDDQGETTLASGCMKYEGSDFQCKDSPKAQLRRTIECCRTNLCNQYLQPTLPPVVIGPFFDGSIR

B1: SC91.19 (antibody, V domains shown)
VH: QIQLVQSGPELKKPGETVKISCKASGYTFTTYGMNWVKQAPGKGLKWMGWINTYSGVPSSANDFKGRFAFSLETSASTAYLQINNLKNEDTATYFCARSELRNWYFDVWGTGTTVTVSS
VL: SFVMTQTPKFLLVSAGDRVTITCKASQSVGNDVAWYQQKPGQSPKLLIYYASNRYTGVPDRFTGSGYGTDFTFTISTVQAEDLAVYFCQQDYSSPFTFGSGTKLEMK
For B1, the ELISA in [1] was 1.46; in experiment [2], 0.121; in experiment [3], 0.05; in [4], 0.737. This molecule also registered a Kd in experiment [5] of 8.46 nM. The “Flow cytometry MFI” value in experiment [6] was 7250; in experiment [7] it was 470. In addition, in experiment [8], the binding result is listed as “binds”. Besides, the “% live, Fab-saporin, 100pM” value worked out at 14.3% in experiment [9] and 102% in experiment [10]. In addition, the “% inhibition” value came out at 32% in experiment [11] and 61% in experiment [12].

B2: SC91.9 (murine anti-BMPR1B antibody) (antibody, V domains shown)
VH: QVQLQQPGAELVKPGASVKLSCKASGYTFISYWMHWVKQRPGQGLEWIGMIHPNSGSTNYNESFKSKATLTVDKSSSTAYMQLSSLTSEDSAVYYCARDLLIATVVVTPYFAYWGQGTILTVSS
VL: DIQMTQTTSSLSASLGDRVTISCRASQDISNFLNWYQQKPDGTIKFLIYYTSRLHSGVPSRFSGSGSGTDYSLTIRNLEQEDIATYFCQQGNTLPYTFGGGTKLEIK
notes: Murine hybridoma antibody
Turning to B2, the ELISA is 1.41 in [1], 0.056 in experiment [2], 0.042 in experiment [3] and 0.551 in [4]. Further, the Kd in experiment [13] worked out at 0.153 nM; in [14], 0.181 nM; in [5] it was 0.322 nM. The figures for the “Flow cytometry MFI” value in [6] and in experiment [7] were 5480 and 5270, respectively. Further, the results for the “% live, Fab-saporin, 100pM” value in experiment [9] and in [10] were 9.44% and 14.7%, respectively. Besides, the “% inhibition” value came to 50% in experiment [11] and 93% in experiment [12].

B3: SC91.15 (murine anti-BMPR1B antibody) (antibody, V domains shown)
VH: QVQLQQPGAELVMPGASVKLSCKASGYTLTNYWMHWVKQRPGQGLEWIGDIDPSDTYTNYNHKFKGKATLTVDKSSSTAYMQLSSLTSEDSAVYYCARSGWDYFDSWGQGTTLTVSS
VL: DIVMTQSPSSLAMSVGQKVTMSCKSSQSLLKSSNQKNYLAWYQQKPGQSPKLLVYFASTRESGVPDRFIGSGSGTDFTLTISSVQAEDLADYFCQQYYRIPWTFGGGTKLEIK
notes: Murine hybridoma antibody
In the case of B3, the ELISA in [1] came out at 1.19; in [2] it was 0.055; in experiment [3] it was 0.05; in [4] it was 0.829. Further, the Kd turned out to be 0.947 nM in experiment [13], 1.5 nM in experiment [14] and 0.922 nM in [5]. For the same molecule, the “Flow cytometry MFI” value is 5610 in experiment [6] and 4590 in experiment [7]. The “% live, Fab-saporin, 100pM” value in [9] was 11.9%; in experiment [10], 18.5%. Further, the “% inhibition” value in experiment [11] was determined as 11%; in experiment [12] it was 92%.

B4: SC91.1 (murine anti-BMPR1B antibody) (antibody, V domains shown)
VH: QVQLQQPGAELVKPGASVKLSCKASGYTFTSYWMQWVKQRPGQGLEWIGEIDPSDNYTLYNQKFKGKATLTVDTSSSTAYMQLSSLTSEDSAVYYCARFGYYVDYWGLGTTLTVSS
VL: DVVMTQTPLSLPVSLGDQASIFCRSSQSLVHSTGNTYLHWYLQKPGQSPKLLIYKVSNRFSGVPDRFSGSGSGTDFTLKISRVEAEDLGVYFCSQSTHVPFTFGSGTKLEIK
notes: Murine hybridoma antibody with a kappa light chain
B4: the ELISA in experiment [1] was determined as 1.17; in experiment [2], 0.031; in [3] it was 0.039; in [4], 0.483. Besides, the results for the Kd in experiment [13], in experiment [14] and in experiment [5] were 5.1 nM, 3.34 nM and 2.34 nM, respectively. Further, the “Flow cytometry MFI” value in [6] was determined as 5520; in experiment [7] it was 5080. Further, the “% live, Fab-saporin, 100pM” value in [9] was 9.53%; in experiment [10], 15.6%. Besides, the figures for the “% inhibition” value in [11] and in experiment [12] were 38% and 75%, respectively.

B5: SC91.27 (murine anti-BMPR1B antibody) (antibody, V domains shown)
VH: QVQLQQPGAEVVKPGASVKLSCKASGYTFTNYWMQWVKQRPGQGLEWIGEIDPSDRYTMYNQKFKGKATLIVDTSSSTAYMQLSSLTSEDSAVYFCARFGYYVDYWGQGTTLTVSS
VL: DVVMTQTPLSLPVSLGDQASISCRSSQSLVHSTGNTYLHWYLQKPGQSPNLLIYKVSNRFSGVPDRFSGSGSGTDFTLKISRVEAEDLGVYFCSQSTHVPFTFGSGTKLEIK
notes: Murine hybridoma antibody with the same VL as SC91.20
With B5, the ELISA amounted to 0.855 in experiment [1], 0.043 in experiment [2], 0.042 in experiment [3] and 0.417 in experiment [4]. For the same molecule, the values for the Kd in experiment [13], in experiment [14] and in experiment [5] were 2.56 nM, 2.14 nM and 1.98 nM, respectively. In addition, the “Flow cytometry MFI” value in experiment [6] is 6880; in [7], 5970. Besides, the “% live, Fab-saporin, 100pM” value in [9] is 11.9%; in [10], 17.9%.

B6: SC91.20 (antibody, V domains shown)
VH: QVQLQQPGAEVVRPGASLKLSCKASGYTFTSYWMQWIKQRPGQGLEWIGEIDPSDNYTMYNQKFKGKATLTVDTSSSTAYMQLSSLTSEDSAVYFCARFGFYVDYWGQGTTLTVSS
VL: DVVMTQTPLSLPVSLGDQASISCRSSQSLVHSTGNTYLHWYLQKPGQSPNLLIYKVSNRFSGVPDRFSGSGSGTDFTLKISRVEAEDLGVYFCSQSTHVPFTFGSGTKLEIK
On to B6, for which the ELISA turned out to be 1.01 in experiment [1], 0.116 in [2], 0.041 in [3] and 0.462 in [4]. Besides, the Kd in [13] came to 2.3 nM; in [14], 1.91 nM; in experiment [5], 0.934 nM. Also, the “Flow cytometry MFI” value in experiment [6] stood at 7480; in experiment [7] it was 5940. The entries for the “% live, Fab-saporin, 100pM” value in experiment [9] and in experiment [10] were 10.4% and 18.2%, respectively.

B7: SC91.3 (murine anti-BMPR1B antibody) (antibody, V domains shown)
VH: QVQLQQPGAELVKPGASVKLSCKASGYTFTSYWMQWVKQRPGQGLEWIGEIDPSDSYTLYNQKFKGKATLTVDTSSSTAYMQLSSLTSEDSAVYFCARFGYYIEYWGQGTTLTVSS
VL: DVVMTQTPLSLPVSLGDQASISCRSSQSLVHSTGNTYLHWYLQKPGQSPKLLIYKVSNRFSGVPDRFSGSGSGTDFTLKISRVEAEDLGVYFCSQSTHVPFTFGSGTKLEIK
notes: Murine hybridoma antibody
On to B7, for which the ELISA turned out to be 0.883 in experiment [1], 0.035 in [2], 0.039 in experiment [3] and 0.423 in experiment [4]. Besides, the Kd in experiment [13] was 0.503 nM; in experiment [5] it was 0.163 nM. Further, the results for the “Flow cytometry MFI” value in [6] and in experiment [7] were 6840 and 5840, respectively. Further, the binding result in experiment [8] is on record as “binds”. In addition, the “% live, Fab-saporin, 100pM” value in experiment [9] came out at 9.34%; in experiment [10] it was 16%.

B8: SC91.11 (antibody, V domains shown)
VH: QVQLQQPGAELVKPGASVKLSCKASGYTFTTYWMHWVKQRPGRGLEWIGRIDPNSGGTKYNEKFKSKATLTVDKPSSTACMQLSSLTSEDSAVYYCASRRGDIDVWGTGTTVTVSS
VL: DIVMTQSQKFMSTSVGDRVSVTCKASQNVGTNVFWYQQKPGQSPKALIYAASYRYSGVPDRFTGSGSGTDFTLTISNVQSEDLADYFCQQYDSYPLTFGDGTKLELR
In the case of B8, the ELISA in experiment [1] was 0.791; in experiment [2] it was 0.117; in experiment [3], 0.04; in experiment [4], 0.387. In addition, the figures for the Kd in experiment [13] and in experiment [5] were 11.1 nM and 1.15 nM, respectively. Also, the “Flow cytometry MFI” value in experiment [6] turned out to be 7330; in experiment [7] it was 4660. Further, the binding result in [8] is “binds”. Moreover, the “% live, Fab-saporin, 100pM” value in [9] came out at 15.5%; in experiment [10], 68.7%.
